Results taken from the DeepSol protein solubility set.

assay: soluble on expression in E. coli; label from the status in PepcDB or PDB records

| Sequence | soluble on expression in E. coli |
| --- | --- |
| MQFERISTEQKKLSLIQTFLHQNALKLDEQIEYFVVGYNDNEQIVVCGGLAGNIIKCVAIDESLRGSGVALQLITELVDLAYTLKRPHLFIYTKPEYATLFKSCGFYIISDANPYVVLLENSATRLQKQCSLWEKMRVDGNRIGSIVMNANPFTLGHRYLIEQALQQCDHLHLFIVGEDASQFSYTERFEMIQQGIFDLSNITLHSGSDYIISRATFPNYFLKDQLITDESYFEIDLKLFRLHIAQALGITHRFVGTELNCPVTAEYNRQMHYWLMDAEMNAPKINVIEIPRKTASNHIISASTVRKHLAEKNWAQLAEFVPMTTLNYLQKCGRF | soluble |
| MQFIKNLQLNKKKDSDSSEQVLTNKKNKMKYEDFNFIRTLGTGSFGRVILATYKNGNYPPVAIKRFEKCKIIRQKQVDHVFSERKILNYINHPFCVNLHGSFKDDSYLYLVLEFVIGGEFFTFLRRNKRFPNDVGCFYAAQIVLIFEYLQSLNIVYRDLKPENLLLDKDGFIKMTDFGFAKIVETRTYTLCGTPEYIAPEILLNVGHGKAADWWTLGIFIYEILVGCPPFYANEPLLIYQKILEGIIYFPKFLDNNCKHLMKKLLSHDLTKRYGNLKKGAQNVKEHPWFSNIDWVNLLNKNVEVPYKPKYKNIFDSSNFERVQEDLTIADKITNENDPFYDW | not soluble |
| MQGFASQPESSYWYPETLLDWSPETDPDARFNRSSIPLREREVLYTVNDTQQTDAKLVALSALNPNTSGVPSQGGNEFFANTFGFWQYVDLMVYWAGSAGEGIITPPSGDVIDAAHRNGVPILGNVFFPPKVYGGQEEWVDKMLVRGEDGSFPAADKLLEVAEYYGFDGWFINQETEGGTPETAKDMQEFLLYLQENKPEGMHIMWYDSMISNGDIRWQNYLTDENAMFFQAGNRKVADSMFLNFWWWNHSQERSKQKAASLGRSPYDLYAGIDVEANGTNTYVNWQQVFPEGGEPHTSLGIYRPDWAFKSTDTMRDFYDREQLFWVGPSGNPAKVDEHAEWKGMATYFPEKTVINELPFVTHFNTGSGQFFAINGKTKLEHHHHHH | not soluble |
| MQGLTATLLPFGATLAKLTFPDKNGKNQDLVLGFDTIDEFEKDAASIGKTVGRVANRIKNSTLHFDGKQYTMTPNNGPHYLHGGPNGLGYRKWEVVRHAPESVSFSVRANEQDDGLPGDAKIDVTYTVNDRNQLIIEHHATCDTPGLLALTNHAYWNLDGSDTVAEHFLEMEADEFVEVDDTFCPTGAIRSVTDTGFDFRSGKQLKESGKDAEELLDLDNDLVITKKTP | not soluble |
| MQGMREIKRRIRSVKNTRQITKAMKMVAAAKLRRAQETAENARPYADKIKEVISSIAAGTKDFSHPMLEARPVKKTGYMVITSDRGLAGPYNANILRLVSKTIEERHQSKDEYVIFAVGRKGRDFFKKRGYPVVEEVTGISDTPSLTEIQDIAQSAIGMFADETFDKLTIFYNEFVSPIVQRPVEKQLLPLTSEEVLDGPVSAYEYEPDSESVLEVLLPKYAETLIYSALLDAKASEFGARMTAMGNATDNATEMLETLTLQFNRARQAAITQEIAEIVAGANALR | soluble |
| MQIAREETRKSGANILYVINHQRPSIFGSSMHQIGGLMLLSDSVVRNEGEGYPDSLLYDSGQRGKIGSRIKAPVHDLSFHFGPSTITNRTKGLSYSEQQLEKKLSNGLSFVLQYKCHPKGNLYGFGLIASRYEADITKKIEYQGIGFANRLDYIAPLFSMSTALSERWFLGMSFGKDGSQSVRLHYRFARLPVDRDLSAVGCVRKKSPHTDDCRLTVSPLYRPS | not soluble |
| MQIDVNVEVKEKPTGAVMFGAGYSNMEGLILSGSVAQDNIFGTGKFVNLMVNTGSVNKTYSLSYTDPYFTKDGVTAGLDLYKRVLNTRTLSSVMNFNTDTLGAGLRFGIPINENDSIMGGLGAEQTTIDLGPDSPQRNIDFVNKFGRTTINIPATLSWRRDGRDSAIWTTSGTTQRVFAEVGLPGGDLTYYKLSYDLRWYFPITEIFTLMLNGELGYGDGYSGKELPFFKNFFAGGNTSVRGYNISSLGPRDATNRTLGGNKRAVGNIEVLFPMPGMRNDRTVRLSAFLDGGTVWGPGGVRPDQEGLRYSAGIAVTWISPMGPLKISVAQPLNSQPGDNIQRFQFQFGQQFLEHHHHHH | not soluble |
| MQKDYQKLIVYLCDFLEKEVQKRGFKKVVYGLSGGLDSAVVGVLCQKVFKENAHALLMPSSVSMPENKTDALNLCEKFSIPYTEYSIAPYDAIFSSHFKDASLTRKGNFCARLRMAFLYDYSLKSDSLVIGTSNKSERMLGYGTLFGDLACAINPIGELFKTEVYELARRLNIPKKILNKPPSADLFVGQSDEKDLGYPYSVIDPLLKDIEALFQTKPIDTETLAQLGYDEILVKNITSRIQKNAFKLELPAIAKRFNPELEHHHHHH | soluble |
| MQKIGEWLKEHDVKVTTIYFGGGTPTSITAEEMDLLYEEMVRSFPDVKNIREITVEAGRPDTITEEKLAVLNKYDIDRISINPQSYENETLKAIGRHHTVEETIEKYHLSRQHGMNNINMDLIIGLPGEGVKEFRHSLSETEKLMPESLTVHTLSFKRASEMTRNKHKYKVAGREEVSQMMEDAVAWTKEHGYVPYYLYRQKNILGNLENVGYSLPGQESIYNIMIMEEVQTIIGIGCGAASKFIDRDTGKITHFANPKDPKSYNERFEHYTDEKIKYLEQIFEKTTKQHLEHHHHHH | not soluble |
| MQLKRVAEAKLPTPWGDFLMVGFEELATGHDHLALIFGDISGDKPVLSRVHSECLTGDALFSLRCDCGFQLEVALTRIAEEGRGVLIYHRQEGRNIGLLNKIRAYALQDLGADTVEANHQLGFAADERDFTLCSDMYKLLGIKAVRLLTNNPKKVEILTQAGINIVERVPLIVGENPKNEHYLATKAAKMGHLLTK | not soluble |
| MQMAGFGLIAKLRNKIRVKPNNKIQIGKNTRIRYCDIYVNGNNNQLIIHNGANLKGVSIELNGNNCLLEIGENCVIGENCFLSCRESGTKLVIGKECMFSRNVKLMTSDGHDILRDGKRINPAKSIYIGSHVWLADNVTILKGVDIGSGSIIGINSTVTKSIGQYCIAAGNPARKIKDNISWNTTLSY | not soluble |
| MQNDMSVVLRAGKLLIESGAEVYRVEDTMKHFAKALQIENFEAYVVSSSIIASGINRYGKQEAKVCNTDGVTANLGRLEAVNNLSRQIAKQDLVSPEEIVKQLDLIEHQKD | not soluble |
| MQNEGQYAEADALLLSLVAAKDAHLMGERTVLGLPRRLHAARLRLAKAEGDLVARIGYQYTLVPPPDMLAKYTQFSAEDRRMINRKSREDVPRLIHQIWIGEKAPPISVKAWAAHAARHGYDYRLWREADLEREGVFSNAIFNRMLSEGDYPGAVDVARYILLERFGGIYLDCDWYPARDDRSFDAFVPLAGLTAFDEKTPRDTGQGSMLLANSFIAAPAGHPVFRKMLDSFPGIIEEMPRAPAWWSTGPLIFTVIARAGSISLAPASFVAVTLADRAPLEEVEAIRRELATQDSGMLIAWKSWLEHHHHHH | soluble |
| MQNETRTLQLDPHLHIEAYRFKGIMQKFPNHFHDYYVIGFIEKGQRYLACQDQEYIINPGDLLLFNPRDTHSCEQIDGRTLDYRCINVMPDIMEKAVKEITGSGHLPYFSQHVLFRHELTASLQELHILISEEKQALRKEELFLHLLEELIRHYSDVTFLSSVPEPSDEVKMVCE | not soluble |
| MQNPFVPQLVYIEPRALEYPLGQELQDKFENMGIEIRETTSHNQVRNIPGKNHLQQYRNAKSTLVIGVRKTLKFDSSKPSAEYAIPFATGCMGHCHYCYLQTTMGSKPYIRTYVNVEEILDQADKYMKERAPEFTRFEASCTSDIVGIDHLTHTLKRAIEHFGQSDLGKLRFVTKFHHVDHLLDAKHNGKTRFRFSINADYVIKNFEPGTSPLDKRIEAAVKVAKAGYPLGFIVAPIYIHEGWEEGYRHLFEKLDAALPQDVRHDITFELIQHRFTKPAKRVIEKNYPKTKLELDEEKRRYKWGRYGIGKYIYQKDEEHALREALESYIDTFFPNAKIEYFT | not soluble |
| MQPYLIPQPGIRVSLSELIEMRHRVREVQLFSTPSRRSPLIGLHHSKLRGRGVDFDQVRVYQAGDDVRSIDWRVTARTQEPHTKLFHEERERPIFILVEQSRRLFFGSGLMFKSVLAAQAAALIGWAALEHNDRVGGLVFGDNEHYEIKPRRSKQSLLQLLNRLVRVNQSLHTEIPADRDAFGTALRRAREVLRPGSLVIVLCDERALSDVAEQQLSLLSRHSDLLLLPLSDPLDRALPAAGLLRFAERGAQLELDTLNPELRRAYRQQGEDRSARWELLAQKLRVLLMPLSTQSELVEQLREYLNAQRPVKRK | not soluble |
| MQQLKKIGFNEYEAKSYVSLVKQGPVTAYQVSKDSGVPRARIYEILGNLVEKGIVMKEEINDTTRYSPLPVEIFLQKAQSEWQSTYEGISDSLKKLETSEEKTDNRVITLKDNQTIISYCQALIKKAERRIVISMWDEMYEALKEDLSEVTDKVTIQGITLHVENPIKNLEAHRITPYTETLSTEHWFIVSIDSKEMIYGPSLAERNIAFYTDDPVHIYLLEDYVWHDVLVNRLVRRNQDDLQQWITAERKSFFMGK | not soluble |
| MQQPEQYCRFLCLVAHEFFHLWNIKRIRPQAFEVFDYDSENYTTSLWFVEGVTSYFDQLIPLWAGLFDAPTYLKLLSDSLNRYFHTPGRFVQSLSAASFDAWIKLYRPDENSINSQMSYYLKGELVALLLDLRLEHHHHHH | not soluble |
| MQQPVINQQPGYNPQGMNPVQQFEMHQQQHQQAITTQPGVFVQPAPGSVWMPMPPAIQGVPTGLEYLTYLDTIMVHQIKELIEIVTDWETKNKYVLKNANGEQCYYAFEESGCCERQCCGPQRGFVMHIVDNFKREVLTIKREFKCCGGGCCGCLACIGCCQQECIIETPSMGVLGIIRQRCGCMSSNYDIMDGDGNVIFQIDGPCCCMLCGCQDKEFPIKTANNGTVVGAITKKWGGCFREAFTDADTFAVNFPGDLDVKLKGVLIGATFLIDFMEFEQQSQNRNNGGAYYSSS | not soluble |
| MQQRRPVRRALLSVSDKAGIVEFAQALSARGVELLSTGGTARLLAEKGLPVTEVSDYTGFPEMMDGRVKTLHPKVHGGILGRRGQDDAIMEEHQIQPIDMVVVNLYPFAQTVAREGCSLEDAVENIDIGGPTMVRSAAKNHKDVAIVVKSSDYDAIIKEMDDNEGSLTLATRFDLAIKAFEHTAAYDSMIANYFGSMVPAYHGESKEAAGRFPRTLNLNFIKKLDMRYGENSHQQAAFYIEENVKEASVATATQVQGKALSYNNIADTDAALECVKEFAEPACVIVKHANPCGVAIGNSILDAYDRAYKTDPTSAFGGIIAFNRELDAETAQAIISRQFVEVIIAPSASEEALKITAAKQNVRVLTCGQWGERVPGLDFKRVNGGLLVQDRDLGMVGAEELRVVTKRQPSEQELRDALFCWKVAKFVKSNAIVYAKNNMTIGIGAGQMSRVYSAKIAGIKAADEGLEVKGSSMASDAFFPFRDGIDAAAAAGVTCVIQPGGSIRDDEVIAAADEHGIAMLFTDMRHFRH | soluble |
| MQREQTKVFKRVAGIKDKAAIKTLISAAYRQIFERDIAPYIAQNEFSGWESKLGNGEITVKEFIEGLGYSNLYLKEFYTPYPNTKVIELGTKHFLGRAPIDQAEIRKYNQILATQGIRAFINALVNSQEYNEVFGEDTVPYRRFPTLPALEHHHHHH | soluble |
| MQRHPTPNARNSLWRWTDAKHPLRVALNYVVIVLARISPSLHAKNWLLARIGVTVGDGVAWGLESTPDVFWPELVTVGDDAIIGYDATLLCHEFLHDEYRTGAVVVEDRAMIGAGAVVLPGVTIGADAQVAANSLVTADVPPGETVAGVPLEHHHHHH | not soluble |
| MQRVGNTFSNESRVASRCPSVGLAERNRVATMPVRLLRDSPAAQEDNDHARDGFQMKLDAHGFAPEELVVQVDGQWLMVTGQQQLDVRDPERVSYRMSQKVHRKMLPSNLSPTAMTCCLTPSGQLWVRGQCVALALPEAQTGPSPRLGSLGSKASNLTR | soluble |
